Measured values as given in patent EP4737479A1 (Bio-Thera Solutions, Ltd., dated 2026).

Biological target: T1, antigen 4-1BB (Sino Biological, Cat. No. 10041-H08H) (UniProt Q07011 24-186)
T1 construct: Bought protein used as SPR analyte; also called CD137
Assay: SPR (Biacore T200), sample captured on the chip by Fc, 4-1BB as analyte

T1 sequence (Q07011 24-186 limits assumed): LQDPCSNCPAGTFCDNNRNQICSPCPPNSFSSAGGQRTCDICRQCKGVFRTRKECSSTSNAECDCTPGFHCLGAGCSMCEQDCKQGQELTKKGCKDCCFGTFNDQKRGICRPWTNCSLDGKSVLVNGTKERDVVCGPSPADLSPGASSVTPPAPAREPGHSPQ

Kd: 3.22 nM
koff: 0.00159 s⁻¹
kon: 496000 M⁻¹ s⁻¹
B1: Urelumab (antibody, V domains shown)
VH: QVQLQQWGAGLLKPSETLSLTCAVYGGSFSGYYWSWIRQSPEKGLEWIGEINHGGYVTYNPSLESRVTISVDTSKNQFSLKLSSVTAADTAVYYCARDYGPGNYDWYFDLWGRGTLVTVSS
VL: EIVLTQSPATLSLSPGERATLSCRASQSVSSYLAWYQQKPGQAPRLLIYDASNRATGIPARFSGSGSGTDFTLTISSLEPEDFAVYYCQQRSNWPPALTFGGGTKVEIK
